Data: PMC11708414

Biological target: heavy mero-myosin (HMM) (rabbit)

unregulated myosin ATPase: KM for ACTC protein, 2 mM ATP	Substance
24.8 µM	R312H cardiac actin variant (R312H-ACTC) (natural protein)
5.63 µM	wildtype cardiac actin (WT-ACTC) (from UniProt P68032 1-377) (natural protein)
16.6 µM	R312C cardiac actin variant (R312C-ACTC) (natural protein)
